Biological target: the molecule itself
Test: crystal structure

B1: ClpP from Bacillus subtilis (BsClpP) (enzyme)
chain: not shown
- stoichiometry N: 14

— paper doi:10.1101/2021.09.20.461017 (bioRxiv, 2021)
